Source: patent US20130158103A1

Molecular target: TGFβ1 (PeproTech Inc, Rocky Hill, N.J.)
Test: cell-based or functional assay

SMA RNA level (real-time PCR), decorin-transfected vs un-transfected HSF with TGFβ1 1 ng/ml: > 6 fold | SMA protein level (western blot), decorin-transfected vs un-transfected HSF with TGFβ1: 83% | SMA-stained cells (immunocytochemistry), decorin-transfected vs un-transfected HSF with TGFβ1: 79% | collagen type I RNA level (real-time PCR), decorin-transfected vs naked-vector transfected HSF with TGFβ1 1 ng/ml: 1 fold | collagen type III RNA level (real-time PCR), decorin-transfected vs naked-vector transfected HSF with TGFβ1 1 ng/ml: 0.9 fold | collagen type IV RNA level (real-time PCR), decorin-transfected vs naked-vector transfected HSF with TGFβ1 1 ng/ml: 3.2 fold | fibronectin RNA level (real-time PCR), decorin-transfected vs naked-vector transfected HSF with TGFβ1 1 ng/ml: 3.1 fold
Substance: human decorin (Accession #NM-001920), expressed in human corneal fibroblasts (HSF) from pcDNA3.1-decorin (from UniProt P07585 31-359)
